Measurements as given in paper PMC4618692, “Crystal Structure and Identification of Two Key Amino Acids Involved in AI-2 Production and Biofilm Formation in Streptococcus suis LuxS” (PLoS ONE, 2015).

Biological target: the molecule itself
Test: SEC; size exclusion chromatography of purified LuxS (Superdex 200 named in the purification); data not shown

B1: S-ribosylhomocysteinase (LuxS) from Streptococcus suis strain HA9801 (enzyme, UniProt A4VTE8 1-160, looked up)
chain: MKKEVTVESFELDHTIVKAPYIRLISEEVGPKGDIITNFDIRLIQPNENAMDTAGLHTIEHLLAKLIRQRIDGLIDCSPFGCRTGFHMIMWGKQDSEKIAQVIKSSLEEIAEGITWEDVPGTTIESCGNYKDHSLHSAKEWAKLILSQGISTDAFERKPI
notes: also called S. suis LuxS; SS LuxS protein; source: E. coli BL21 (DE3), pET28-luxS, purified (HisTrap column, Superdex 200 size-exclusion chromatography)
Q: With B1 as the protein, how does the “stoichiometry N” value read?
A: 2
